In patent US20240325520A1:
Like-named read-outs stand apart in the source and are kept apart here.

How the values were obtained:
[1] = target: RBD protein (K417N, N501Y, E484K)
[2] = target: RBD protein (L452R, E484Q)
[3] = target: RBD protein (L452R, E484Q); remark: listed apart in the source

## MM43 neutralizing monoclonal antibody (Beijing Sino Biological Ltd. Co., article number 40591-MM43)
[1]
  EC50 (read off the curve): 0.7 µg/mL

## MM57 neutralizing monoclonal antibody (Beijing Sino Biological Ltd. Co., article number 40592-MM57)
[2]
  EC50 (read off the curve): 0.2 µg/mL

## R001 neutralizing monoclonal antibody (Beijing Sino Biological Ltd. Co., article number 40592-R001)
[3]
  EC50 (read off the curve): 0.2 µg/mL
